The source of these data is the supplement of paper PMC7877785.

A short description of this data set: self-splicing fitness, log relative to wild type (ln ratio); higher = more splicing; Tetrahymena group I intron in knt gene, E. coli kanamycin selection, DiMSum; sequences stand for … in CUCUCU…GGAGGGAAAAGUUAUCAGGCAUGCACCUGGUAGCUAGUCUUUAAACCAAUAGAUUGCAUCGGUUUAAAAGGCAAGACCGUCAAAUUGCGGGAAAGGGGUCAACAGCCGUUCAGUACCAAGUCUCAGGGGAAACUUUGAGAUGGCCUUGCAAAGGGUAUGGUAAUAAGCUGACGGACAUGGUCCUAACCACGCAGCCAAGUCCUAAGUCAACAGAUCUUCUGUUGAUAUGGAUGCAGUUCACAGACUAAAUGUCGGUCGGGGAAGAUGUAUUCUUCUCAUAAGAUAUAGUCGGACCUCUCCUUAAUGGGAGCUAGCGGAUGAAGUGAUGCAACACUGGAGCCGCUGGGAACUAAUUUGUAUGCGAAAGUAUAUUGAUUAGUUUUGGAGUACUCGUGGUCG
In a few lines:
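A randomised library covering all eight P1ex-region intron nucleotides was built with the intron in the knt kanamycin-resistance gene on pET-22b(+) and held in E. coli BL21(DE3). Cells were grown overnight at 37°C or 30°C on LB agar, with or without 25 μg/mL kanamycin, plus 100 μg/mL carbenicillin, 50 μM IPTG and 0.2% rhamnose, and pooled colonies were amplicon-sequenced on an Illumina HiSeq 2500. DiMSum fitness is the error-weighted combination of wild-type-normalised replicate fold changes, kanamycin versus none.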

± gives the uncertainty stated by the source.

Turning to AGACAGCAAUAUUACGUAGG, the “self-splicing fitness (ln)” value reads like this: (30 °C) -2.6 ± 0.11; (37 °C) -1.28 ± 0.11.

Turning to UGACAGCAAUAUUACGAAAG, the “self-splicing fitness (ln)” value is -3.07 ± 0.25 (30 °C) and -2.15 ± 0.2 (37 °C). For the sequence UUAGAGCAAUAUUACGGUCA, the “self-splicing fitness (ln)” value by setting is: (30 °C) -1.7 ± 0.15; (37 °C) -1.34 ± 0.14. In the case of UAGUAGCAAUAUUACGUGGC, under “37 °C”, the “self-splicing fitness (ln)” value is -2.59 ± 0.44. With GAGAAGCAAUAUUACGUUUA, the “self-splicing fitness (ln)” value runs as follows: (30 °C) -2.13 ± 0.12; (37 °C) -0.99 ± 0.12. On the same counts, the results for UCCUAGCAAUAUUACGAACA are -2.9 ± 0.29 and -1.3 ± 0.22. On the same counts, the results for UAAAAGCAAUAUUACGAUAG are -0.934 ± 0.078 and -0.765 ± 0.088.

Regarding UUCAAGCAAUAUUACGUGAG, the “self-splicing fitness (ln)” value runs as follows: (30 °C) -0.36 ± 0.071; (37 °C) 0.0932 ± 0.088. On the same counts, the results for AAUUAGCAAUAUUACGAAUG are -1.55 ± 0.12 and 0.187 ± 0.14. Consider CACCAGCAAUAUUACGAUCG, for which the “self-splicing fitness (ln)” value is, setting by setting: (30 °C) -0.326 ± 0.059; (37 °C) 0.608 ± 0.085. The corresponding values for CCGAAGCAAUAUUACGGCAU are -4.19 ± 0.31 and -2.92 ± 0.23. On the same counts, the results for AAAAAGCAAUAUUACGUUGG are -3.28 ± 0.14 and -1.15 ± 0.11. Consider GAUGAGCAAUAUUACGAGCA, for which the “self-splicing fitness (ln)” value (30 °C) is -2.59 ± 0.37.

Regarding CGAGAGCAAUAUUACGAGAA, the “self-splicing fitness (ln)” value (37 °C) was -1.69 ± 0.43. Consider UUAAAGCAAUAUUACGAUUG, for which the “self-splicing fitness (ln)” value (30 °C) was -2.03 ± 0.11 and the “self-splicing fitness (ln)” value (37 °C) was -0.734 ± 0.11. The corresponding values for CGAUAGCAAUAUUACGCUGG are -0.585 ± 0.19 and -1.43 ± 0.23. On the same counts, the results for GCCCAGCAAUAUUACGGUGC are -3.13 ± 0.14 and -2.52 ± 0.18.

For ACUGAGCAAUAUUACGGCCG, the “self-splicing fitness (ln)” value is, setting by setting: (30 °C) -1.89 ± 0.17; (37 °C) -0.752 ± 0.2.

In the case of GAACAGCAAUAUUACGCCGG, the “self-splicing fitness (ln)” value is -1.56 ± 0.18 (30 °C) and -0.838 ± 0.24 (37 °C). For the sequence CAGGAGCAAUAUUACGGAGU, the “self-splicing fitness (ln)” value is -2.74 ± 0.17 (30 °C) and -2.21 ± 0.25 (37 °C). For UACAAGCAAUAUUACGCCGU, the “self-splicing fitness (ln)” value reads like this: (30 °C) -2.13 ± 0.16; (37 °C) -1.62 ± 0.18. The corresponding values for AUUUAGCAAUAUUACGGAUC are -2.84 ± 0.22 and -0.766 ± 0.19. On to CCGUAGCAAUAUUACGAAUG, for which the “self-splicing fitness (ln)” value is -0.463 ± 0.099 (30 °C) and 0.0216 ± 0.11 (37 °C). Take CGCAAGCAAUAUUACGGCAC: the “self-splicing fitness (ln)” value reads like this: (30 °C) -2.32 ± 0.21; (37 °C) -1.29 ± 0.3.

As to GUGAAGCAAUAUUACGGUCC, the “self-splicing fitness (ln)” value runs as follows: (30 °C) -0.351 ± 0.15; (37 °C) -0.0265 ± 0.18.

As for CCCCAGCAAUAUUACGUUGG, the “self-splicing fitness (ln)” value reads like this: (30 °C) -3.95 ± 0.12; (37 °C) -2.83 ± 0.14.

As for GUUCAGCAAUAUUACGUAGA, the “self-splicing fitness (ln)” value is -0.546 ± 0.1 (30 °C) and -0.394 ± 0.1 (37 °C). CGUUAGCAAUAUUACGAAAC: the “self-splicing fitness (ln)” value (37 °C) is -1.84 ± 0.37.

With GGUCAGCAAUAUUACGGUAU, the “self-splicing fitness (ln)” value is -0.344 ± 0.11 (30 °C) and 0.218 ± 0.13 (37 °C). For the sequence UCGGAGCAAUAUUACGAUUA, the “self-splicing fitness (ln)” value (37 °C) was found to be 0.203 ± 0.28. Regarding CGUAAGCAAUAUUACGGCAU, the “self-splicing fitness (ln)” value (30 °C) was -3.27 ± 0.27 and the “self-splicing fitness (ln)” value (37 °C) was -2.37 ± 0.15.

Take AAAUAGCAAUAUUACGCGUA: the “self-splicing fitness (ln)” value was -2.41 ± 0.21 (30 °C) and -1.04 ± 0.13 (37 °C). Take AUCCAGCAAUAUUACGGGCC: the “self-splicing fitness (ln)” value (30 °C) is -1.23 ± 0.2 and the “self-splicing fitness (ln)” value (37 °C) was -1.24 ± 0.33. Turning to GCCUAGCAAUAUUACGUGUC, the “self-splicing fitness (ln)” value reads like this: (30 °C) -1.13 ± 0.056; (37 °C) -0.843 ± 0.058. The corresponding values for CCCUAGCAAUAUUACGAGUG are -3.51 ± 0.16 and -2.28 ± 0.12. Consider GUCCAGCAAUAUUACGAAAC, for which the “self-splicing fitness (ln)” value is, setting by setting: (30 °C) -0.222 ± 0.15; (37 °C) -0.568 ± 0.2. On the same counts, the results for GCUAAGCAAUAUUACGUUAA are -2.72 ± 0.16 and -1.74 ± 0.18. On the same counts, the results for AUAAAGCAAUAUUACGAGUA are -1.12 ± 0.086 and -0.205 ± 0.12.

With CGCUAGCAAUAUUACGAGAC, the “self-splicing fitness (ln)” value runs as follows: (30 °C) -3.36 ± 0.12; (37 °C) -2.45 ± 0.13.

Consider CUUGAGCAAUAUUACGACCG, for which the “self-splicing fitness (ln)” value reads like this: (30 °C) -1.68 ± 0.19; (37 °C) -1.16 ± 0.26. The corresponding values for UUCUAGCAAUAUUACGGGAG are -2.34 ± 0.19 and -1.47 ± 0.19.

In the case of ACGCAGCAAUAUUACGGCAG, the “self-splicing fitness (ln)” value was -1.22 ± 0.093 (30 °C) and -1.08 ± 0.15 (37 °C). On the same counts, the results for CAGUAGCAAUAUUACGGCCU are -3.02 ± 0.2 and -1.67 ± 0.17.

For the sequence UAAUAGCAAUAUUACGCACG, the “self-splicing fitness (ln)” value (30 °C) is -1.1 ± 0.16 and the “self-splicing fitness (ln)” value (37 °C) turned out to be 0.193 ± 0.24. The corresponding values for UUUGAGCAAUAUUACGGUAA are -2.38 ± 0.29 and -1.94 ± 0.25. Turning to UGUGAGCAAUAUUACGGCGA, the “self-splicing fitness (ln)” value runs as follows: (30 °C) -1.37 ± 0.14; (37 °C) -1.05 ± 0.15. The corresponding values for UGACAGCAAUAUUACGACAU are -1.209 ± 0.012 and -0.373 ± 0.032. With UUCAAGCAAUAUUACGCCUA, the “self-splicing fitness (ln)” value is, setting by setting: (30 °C) 0.0224 ± 0.061; (37 °C) 0.182 ± 0.077. The corresponding values for CGCUAGCAAUAUUACGCGCC are -2.52 ± 0.19 and -2.24 ± 0.35. The corresponding values for AUACAGCAAUAUUACGUGAG are -1.51 ± 0.06 and -0.677 ± 0.097. On the same counts, the results for ACGUAGCAAUAUUACGACCC are -0.864 ± 0.19 and 0.196 ± 0.22. With ACACAGCAAUAUUACGCUUG, the “self-splicing fitness (ln)” value (30 °C) was -1.24 ± 0.063 and the “self-splicing fitness (ln)” value (37 °C) was -0.733 ± 0.076. On the same counts, the results for GCUUAGCAAUAUUACGCGUU are -0.427 ± 0.096 and 0.0522 ± 0.1. On the same counts, the results for AACUAGCAAUAUUACGGUUG are -1.36 ± 0.1 and -0.299 ± 0.11. Regarding GGAAAGCAAUAUUACGUGGU, the “self-splicing fitness (ln)” value is -3.11 ± 0.18 (30 °C) and -1.9 ± 0.16 (37 °C). The corresponding values for UUGGAGCAAUAUUACGAAAG are -2.5 ± 0.33 and -2.08 ± 0.37. Take CAACAGCAAUAUUACGCCUC: the “self-splicing fitness (ln)” value is, setting by setting: (30 °C) -3.85 ± 0.29; (37 °C) -1.81 ± 0.18. Consider ACGUAGCAAUAUUACGGCAC, for which the “self-splicing fitness (ln)” value (37 °C) was -1.73 ± 0.42. With GGUAAGCAAUAUUACGUAAA, the “self-splicing fitness (ln)” value is, setting by setting: (30 °C) -0.961 ± 0.083; (37 °C) -1.13 ± 0.13.

Regarding AAUGAGCAAUAUUACGCCUA, the “self-splicing fitness (ln)” value (30 °C) was -1.13 ± 0.21 and the “self-splicing fitness (ln)” value (37 °C) is -1.62 ± 0.25. Consider CCUAAGCAAUAUUACGGGGU, for which the “self-splicing fitness (ln)” value (30 °C) is -3.28 ± 0.17 and the “self-splicing fitness (ln)” value (37 °C) is -2.82 ± 0.17. Regarding ACUAAGCAAUAUUACGGGCA, the “self-splicing fitness (ln)” value reads like this: (30 °C) -1.27 ± 0.089; (37 °C) -0.405 ± 0.1.
